The values that follow come from article doi:10.1101/2020.12.23.424221.

Read-outs that look alike come from different tables or passages of the source.

Common to all, as to test: single-molecule TIRF microscopy
For assay [1], the target named is Taxol-stabilized rhodamine-labeled biotinylated microtubules (bovine) (UniProt Q6B856).
The target is the same in assay [2]. The source holds these as a separate data set.
For assay [3] the target is unchanged. This is another data set of the same source.
For assay [4] the target is unchanged. The source holds these as a separate data set.
For assay [5] the target is unchanged. This is another data set of the same source.
Assay [6] has the same target. The source holds these as a separate data set.
Assay [7] shares this target. This is another data set of the same source.
For assay [8] the target is unchanged. This is another data set of the same source.
Assay [9] has the same target. The source holds these as a separate data set.
For assay [10] the target is unchanged. The source holds these as a separate data set.
Assay [11] shares this target. The source holds these as a separate data set.
The target is the same in assay [12]. The source holds these as a separate data set.

B1: GFP-tagged Kif4A (natural protein)
chain: MKEEVKGIPVRVALRCRPLVPKEISEGCQMCLSFVPGEPQVVVGTDKSFTYDFVFDPSTEQEEVFNTAVAPLIKGVFKGYNATVLAYGQTGSGKTYSMGGAYTAEQENEPTVGVIPRVIQLLFKEIDKKSDFEFTLKVSYLEIYNEEILDLLCPSREKAQINIREDPKEGIKIVGLTEKTVLVALDTVSCLEQGNNSRTVASTAMNSQSSRSHAIFTISLEQRKKSDKNSSFRSKLHLVDLAGSERQKKTKAEGDRLKEGININRGLLCLGNVISALGDDKKGGFVPYRDSKLTRLLQDSLGGNSHTLMIACVSPADSNLEETLNTLRYADRARKIKNKPIVNIDPQTAELNHLKQQVQQLQVLLLQAHGGTLPGSITVEPSENLQSLMEKNQSLVEENEKLSRGLSEAAGQTAQMLERIILTEQANEKMNAKLEELRQHAACKLDLQKLVETLEDQELKENVEIICNLQQLITQLSDETVACMAAAIDTAVEQEAQVETSPETSRSSDAFTTQHALRQAQMSKELVELNKALALKEALARKMTQNDSQLQPIQYQYQDNIKELELEVINLQKEKEELVLELQTAKKDANQAKLSERRRKRLQELEGQIADLKKKLNEQSKLLKLKESTERTVSKLNQEIRMMKNQRVQLMRQMKEDAEKFRQWKQKKDKEVIQLKERDRKRQYELLKLERNFQKQSNVLRRKTEEAAAANKRLKDALQKQREVADKRKETQSRGMEGTAARVKNWLGNEIEVMVSTEEAKRHLNDLLEDRKILAQDVAQLKEKKESGENPPPKLRRRTFSLTEVRGQVSESEDSITKQIESLETEMEFRSAQIADLQQKLLDAESEDRPKQRWENIATILEAKCALKYLIGELVSSKIQVSKLESSLKQSKTSCADMQKMLFEERNHFAEIETELQAELVRMEQQHQEKVLYLLSQLQQSQMAEKQLEESVSEKEQQLLSTLKCQDEELEKMREVCEQNQQLLRENEIIKQKLTLLQVASRQKHLPKDTLLSPDSSFEYVPPKPKPSRVKEKFLEQSMDIEDLKYCSEHSVNEHEDGDGDDDEGDDEEWKPTKLVKVSRKNIQGCSCKGWCGNKQCGCRKQKSDCGVDCCCDPTKCRNRQQGKDSLGTVERTQDSEGSFKLEDPTEVTPGLSFFNPVCATPNSKILKEMCDVEQVLSKKTPPAPSPFDLPELKHVATEYQENKAPGKKKKRALASNTSFFSGCSPIEEEAH
As for B1, the lifetime on the microtubule (median) came to 17.9 s in [1]; 8.3 s in assay [2]; 4.9 s in [3]; 1.8 s in assay [4]; 1.5 s in assay [5]; 3.6 s in [6]. In addition, the lifetime on the microtubule (median) in [7] came out at 2.1 s; in [8], 4.2 s; in [9], 1.2 s; in assay [10] it was 9 s; in assay [11] it was 3.9 s; in [12] it was 7.2 s.
